We go through five molecules from paper PMC5608357, “Identification of LAG3 high affinity aptamers by HT-SELEX and Conserved Motif Accumulation (CMA)”.

Data set [1] addresses T1, LAG3-Fc (rmLAG3-Fc) (mouse, UniProt Q61790 24-442). As to the kind of experiment: filter binding; 2 mM Ca2+; Filter binding: 20 mM HEPES pH 7.4, 150 mM NaCl, 2 mM CaCl2, 37 C, 30 min; SPR: PBS, 0.005% Tween 20, pH 7.4, temperature not stated. The conditions noted are these: protein: recombinant; tags: human IgG2-Fc fusion; chain copies: 2; label: 32P (alpha-ATP).
The target in data set [2] is T1, LAG3-Fc (rmLAG3-Fc). As to the kind of experiment: SPR; apparent Kd from equilibrium RU; printed kon 1x10^3, koff <2.1x10^-4 s-1 do not match it; Filter binding: 20 mM HEPES pH 7.4, 150 mM NaCl, 2 mM CaCl2, 37 C, 30 min; SPR: PBS, 0.005% Tween 20, pH 7.4, temperature not stated. Conditions: protein: recombinant; tags: human IgG2-Fc fusion; chain copies: 2.

T1 sequence (Q61790 24-442): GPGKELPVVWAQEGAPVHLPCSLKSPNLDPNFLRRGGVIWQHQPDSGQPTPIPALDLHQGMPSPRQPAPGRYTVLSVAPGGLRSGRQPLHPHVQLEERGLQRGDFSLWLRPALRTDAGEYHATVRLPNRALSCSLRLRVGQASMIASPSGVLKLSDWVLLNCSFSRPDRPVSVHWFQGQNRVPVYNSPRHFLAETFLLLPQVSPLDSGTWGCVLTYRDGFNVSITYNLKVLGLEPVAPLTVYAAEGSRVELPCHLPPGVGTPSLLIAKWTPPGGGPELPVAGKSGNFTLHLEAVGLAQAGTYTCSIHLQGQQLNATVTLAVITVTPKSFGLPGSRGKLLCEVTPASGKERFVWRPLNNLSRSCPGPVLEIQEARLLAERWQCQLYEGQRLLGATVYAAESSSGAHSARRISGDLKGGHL

B1: LAG3 Apt5 (structured_RNA)
RNA: GGGAGAGAGAUAUAAGGGUCUUGCCCAUCGACAAUAGAGCCCAGUCGCUGCCCAUUACCAAAUUCUCUCC
modifications: 2'-F-U, 2'-F-C
Consider B1, for which the Kd in data set [1] amounted to 200 nM.

B2: LAG3 Apt2 (structured_RNA)
RNA: GGGAGAGAGAUAUAAGGGUCUUGCCUGAUGGAGUUGGAGAGGACCAUCACCCAUUACCAAAUUCUCUCCC
modifications: 2'-F-U, 2'-F-C
Consider B2, for which, in data set [1], the Kd was determined as 50 nM.

B3: LAG3 Apt4 (structured_RNA)
RNA: GGGAGAGAGAUAUAAGGGACCGAAUCUGGUUAAUCUGCCUCACGUUAGGCCCAUUACCAAAUUCUCUCCC
modifications: 2'-F-U, 2'-F-C
B3: in data set [1], the Kd worked out at 100 nM.

B4: LAG3 Apt1 (structured_RNA)
RNA: GGGAGAGAGAUAUAAGGGCCUCCUGAUACCCGCUGCUAUCUGGACCGAUCCCAUUACCAAAUUCUCUCCC
modifications: 2'-F-U, 2'-F-C
B4: the Kd in data set [1] worked out at 20 nM.

B5: LAG3 Apt1, biotinylated (structured_RNA)
RNA: B4 RNA
modifications: 2'-F-U, 2'-F-C
For the molecule B5, the Kd in data set [2] amounted to 2.7 nM.
